Where two headings read alike, the source gives them in different places.
T1: rhesus ILT3-His tagged recombinant protein (rhesus monkey (Macaca mulatta))
T1 construct: also called ILT3_MM; not shown: His tag
T1 chain: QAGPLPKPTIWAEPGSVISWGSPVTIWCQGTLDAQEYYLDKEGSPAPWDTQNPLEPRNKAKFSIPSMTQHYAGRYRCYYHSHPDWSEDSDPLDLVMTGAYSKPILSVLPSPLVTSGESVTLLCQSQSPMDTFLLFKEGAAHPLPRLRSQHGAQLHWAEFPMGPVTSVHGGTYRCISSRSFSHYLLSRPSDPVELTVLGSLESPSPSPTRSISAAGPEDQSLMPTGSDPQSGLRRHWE

B1: Humanized anti-ILT3 mAb (52B8 VH1 M64V/VL2) IgG4 S228P/Kappa (antibody)
heavy: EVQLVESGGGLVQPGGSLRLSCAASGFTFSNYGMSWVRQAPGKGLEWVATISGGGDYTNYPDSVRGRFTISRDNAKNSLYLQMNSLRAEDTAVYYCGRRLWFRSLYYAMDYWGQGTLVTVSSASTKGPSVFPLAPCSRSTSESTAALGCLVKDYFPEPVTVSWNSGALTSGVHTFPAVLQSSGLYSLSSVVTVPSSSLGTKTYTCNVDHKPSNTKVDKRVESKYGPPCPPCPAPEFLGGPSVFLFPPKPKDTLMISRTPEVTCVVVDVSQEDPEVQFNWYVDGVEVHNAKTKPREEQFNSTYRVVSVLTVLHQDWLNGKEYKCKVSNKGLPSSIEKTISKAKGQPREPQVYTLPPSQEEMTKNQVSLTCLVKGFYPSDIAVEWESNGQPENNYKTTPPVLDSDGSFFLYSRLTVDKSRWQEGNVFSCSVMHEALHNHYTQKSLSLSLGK
light: DIVLTQSPDSLAVSLGERATINCRASEKVDSFGNSFMHWYQQKPGQPPKLLIYLTSNLDSGVPDRFSGSGSGTDFTLTISSLQAEDVAVYYCQQNNEDPYTFGQGTKLEIKRTVAAPSVFIFPPSDEQLKSGTASVVCLLNNFYPREAKVQWKVDNALQSGNSQESVTEQDSKDSTYSLSSTLTLSKADYEKHKVYACEVTHQGLSSPVTKSFNRGEC
notes: also called mAb 10
B2: Humanized anti-ILT3 mAb ((52B8 VH1 M64V/VL7) L234A L235A D265S) IgG1/Kappa (antibody)
heavy: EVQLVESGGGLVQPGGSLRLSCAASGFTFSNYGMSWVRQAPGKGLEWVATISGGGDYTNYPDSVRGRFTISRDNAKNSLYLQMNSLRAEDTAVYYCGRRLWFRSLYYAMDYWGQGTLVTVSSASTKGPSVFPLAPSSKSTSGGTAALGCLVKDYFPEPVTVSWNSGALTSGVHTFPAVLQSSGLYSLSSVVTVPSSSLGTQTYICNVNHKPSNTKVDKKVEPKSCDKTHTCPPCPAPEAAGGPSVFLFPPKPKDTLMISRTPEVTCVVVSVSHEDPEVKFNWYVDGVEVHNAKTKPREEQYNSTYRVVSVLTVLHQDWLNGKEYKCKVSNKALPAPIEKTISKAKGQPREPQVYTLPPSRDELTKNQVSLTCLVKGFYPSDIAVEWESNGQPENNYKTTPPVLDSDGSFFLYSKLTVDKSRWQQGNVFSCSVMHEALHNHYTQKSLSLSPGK
light: DIQLTQSPSSLSASVGDRVTITCRASEKVDSFGNSFMHWYQQKPGKAPKLLIYLTSNLDSGVPSRFSGSGSRTDFTLTISSLQPEDFATYYCQQNNEDPYTFGQGTKLEIKRTVAAPSVFIFPPSDEQLKSGTASVVCLLNNFYPREAKVQWKVDNALQSGNSQESVTEQDSKDSTYSLSSTLTLSKADYEKHKVYACEVTHQGLSSPVTKSFNRGEC
notes: also called mAb 28
B3: Humanized anti-ILT3 mAb ((52B8 VH1 M64V/VL5) L234A L235A D265S) IgG1/Kappa (antibody)
heavy: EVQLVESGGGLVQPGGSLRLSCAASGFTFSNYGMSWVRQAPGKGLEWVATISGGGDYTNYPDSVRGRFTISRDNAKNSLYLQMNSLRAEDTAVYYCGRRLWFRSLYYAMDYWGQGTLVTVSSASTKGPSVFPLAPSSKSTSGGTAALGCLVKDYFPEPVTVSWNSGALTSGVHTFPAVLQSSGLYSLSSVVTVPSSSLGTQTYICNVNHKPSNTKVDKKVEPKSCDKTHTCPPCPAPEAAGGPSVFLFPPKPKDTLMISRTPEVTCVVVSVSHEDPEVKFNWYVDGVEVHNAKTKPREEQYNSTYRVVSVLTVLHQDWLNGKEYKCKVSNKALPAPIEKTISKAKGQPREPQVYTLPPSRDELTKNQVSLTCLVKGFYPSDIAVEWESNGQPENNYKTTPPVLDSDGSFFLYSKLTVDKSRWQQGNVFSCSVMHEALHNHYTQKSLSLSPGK
light: DIQLTQSPSSLSASVGDRVTITCRASEKVDSFGNSFMHWYQQKPGKAPKLLIYLTSNLDSGVPSRFSGSGSGTDFTLTISSLQPEDFATYYCQQNNEDPYTFGQGTKLEIKRTVAAPSVFIFPPSDEQLKSGTASVVCLLNNFYPREAKVQWKVDNALQSGNSQESVTEQDSKDSTYSLSSTLTLSKADYEKHKVYACEVTHQGLSSPVTKSFNRGEC
notes: also called mAb 26
B4: Humanized anti-ILT3 mAb ((52B8 VH1 M64V/VL6) L234A L235A D265S) IgG1/Kappa (antibody)
heavy: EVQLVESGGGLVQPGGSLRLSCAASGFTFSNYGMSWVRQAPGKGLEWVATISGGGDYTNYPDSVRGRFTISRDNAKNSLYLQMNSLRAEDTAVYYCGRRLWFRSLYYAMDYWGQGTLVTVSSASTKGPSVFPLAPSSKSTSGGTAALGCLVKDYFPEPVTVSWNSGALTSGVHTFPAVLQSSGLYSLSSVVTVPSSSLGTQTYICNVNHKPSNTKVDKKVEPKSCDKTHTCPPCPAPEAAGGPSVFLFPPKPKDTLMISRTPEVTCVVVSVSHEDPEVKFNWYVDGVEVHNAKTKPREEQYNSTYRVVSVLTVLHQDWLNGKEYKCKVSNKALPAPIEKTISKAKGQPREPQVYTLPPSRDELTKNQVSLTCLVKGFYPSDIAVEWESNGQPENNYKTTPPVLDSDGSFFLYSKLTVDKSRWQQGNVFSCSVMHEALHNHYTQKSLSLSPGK
light: DIQMTQSPSSLSASVGDRVTITCRASEKVDSFGNSFMHWYQQKPGKAPKLLIYLTSNLDSGVPSRFSGSGSRTDFTLTISSLQPEDFATYYCQQNNEDPYTFGQGTKLEIKRTVAAPSVFIFPPSDEQLKSGTASVVCLLNNFYPREAKVQWKVDNALQSGNSQESVTEQDSKDSTYSLSSTLTLSKADYEKHKVYACEVTHQGLSSPVTKSFNRGEC
notes: also called mAb 27
B5: Humanized anti-ILT3 mAb ((52B8 VH1 M64V/VL8) L234A L235A D265S) IgG1/Kappa (antibody)
heavy: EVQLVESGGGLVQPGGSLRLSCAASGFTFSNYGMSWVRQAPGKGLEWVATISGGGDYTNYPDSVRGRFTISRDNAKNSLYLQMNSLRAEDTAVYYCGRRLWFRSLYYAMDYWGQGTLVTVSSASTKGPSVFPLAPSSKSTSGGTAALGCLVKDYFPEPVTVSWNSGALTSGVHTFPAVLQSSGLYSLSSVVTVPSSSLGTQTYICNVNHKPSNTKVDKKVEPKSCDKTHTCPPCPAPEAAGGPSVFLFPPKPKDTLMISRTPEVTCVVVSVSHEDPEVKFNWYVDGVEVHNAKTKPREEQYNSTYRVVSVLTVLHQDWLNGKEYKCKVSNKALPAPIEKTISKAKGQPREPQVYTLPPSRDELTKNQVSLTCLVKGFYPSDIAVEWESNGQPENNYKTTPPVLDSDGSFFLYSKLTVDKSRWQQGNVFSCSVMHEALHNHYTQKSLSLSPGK
light: DIQLTQSPSSLSASVGDRVTITCRASEKVDSFGNSFMHWYQQKPGKAPKLLIYLTSNLDSGVPARFSGSGSRTDFTLTISSLQPEDFATYYCQQNNEDPYTFGQGTKLEIKRTVAAPSVFIFPPSDEQLKSGTASVVCLLNNFYPREAKVQWKVDNALQSGNSQESVTEQDSKDSTYSLSSTLTLSKADYEKHKVYACEVTHQGLSSPVTKSFNRGEC
notes: also called mAb 29
B6: Humanized anti-ILT3 mAb (52B8 VH1 M64V/VL5) IgG4 S228P/Kappa (antibody)
heavy: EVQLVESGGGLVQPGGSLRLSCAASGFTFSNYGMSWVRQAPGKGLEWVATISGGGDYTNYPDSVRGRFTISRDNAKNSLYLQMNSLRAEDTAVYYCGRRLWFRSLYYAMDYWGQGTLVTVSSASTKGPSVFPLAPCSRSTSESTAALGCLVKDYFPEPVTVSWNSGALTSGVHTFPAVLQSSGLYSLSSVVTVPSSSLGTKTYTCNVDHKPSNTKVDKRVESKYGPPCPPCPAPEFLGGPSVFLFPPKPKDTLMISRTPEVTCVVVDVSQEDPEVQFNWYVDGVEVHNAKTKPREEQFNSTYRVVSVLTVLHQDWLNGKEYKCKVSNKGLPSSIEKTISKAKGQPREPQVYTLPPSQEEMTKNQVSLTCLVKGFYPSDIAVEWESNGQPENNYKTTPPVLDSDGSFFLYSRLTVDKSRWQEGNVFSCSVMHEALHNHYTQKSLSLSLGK
light: DIQLTQSPSSLSASVGDRVTITCRASEKVDSFGNSFMHWYQQKPGKAPKLLIYLTSNLDSGVPSRFSGSGSGTDFTLTISSLQPEDFATYYCQQNNEDPYTFGQGTKLEIKRTVAAPSVFIFPPSDEQLKSGTASVVCLLNNFYPREAKVQWKVDNALQSGNSQESVTEQDSKDSTYSLSSTLTLSKADYEKHKVYACEVTHQGLSSPVTKSFNRGEC
notes: also called mAb 30; humanized 52B8 VH1 M64V/VL5
B7: Humanized anti-ILT3 mAb (52B8 VH1 M64V/VL6) IgG4 S228P/Kappa (antibody)
heavy: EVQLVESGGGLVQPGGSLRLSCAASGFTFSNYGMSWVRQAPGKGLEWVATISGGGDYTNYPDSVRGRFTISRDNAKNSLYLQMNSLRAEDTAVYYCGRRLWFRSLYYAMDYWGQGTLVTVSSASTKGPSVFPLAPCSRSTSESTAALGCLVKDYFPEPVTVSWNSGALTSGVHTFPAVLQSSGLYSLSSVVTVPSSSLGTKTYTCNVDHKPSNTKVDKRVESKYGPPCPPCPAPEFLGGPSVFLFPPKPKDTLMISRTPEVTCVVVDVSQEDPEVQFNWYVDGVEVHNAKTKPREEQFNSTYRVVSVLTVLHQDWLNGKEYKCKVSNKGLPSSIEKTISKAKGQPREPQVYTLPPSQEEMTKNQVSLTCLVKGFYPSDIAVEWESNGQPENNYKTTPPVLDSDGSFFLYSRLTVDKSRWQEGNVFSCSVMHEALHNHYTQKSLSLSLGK
light: DIQMTQSPSSLSASVGDRVTITCRASEKVDSFGNSFMHWYQQKPGKAPKLLIYLTSNLDSGVPSRFSGSGSRTDFTLTISSLQPEDFATYYCQQNNEDPYTFGQGTKLEIKRTVAAPSVFIFPPSDEQLKSGTASVVCLLNNFYPREAKVQWKVDNALQSGNSQESVTEQDSKDSTYSLSSTLTLSKADYEKHKVYACEVTHQGLSSPVTKSFNRGEC
notes: also called mAb 31
B8: Humanized anti-ILT3 mAb (52B8 VH1 M64V/VL7) IgG4 S228P/Kappa (antibody)
heavy: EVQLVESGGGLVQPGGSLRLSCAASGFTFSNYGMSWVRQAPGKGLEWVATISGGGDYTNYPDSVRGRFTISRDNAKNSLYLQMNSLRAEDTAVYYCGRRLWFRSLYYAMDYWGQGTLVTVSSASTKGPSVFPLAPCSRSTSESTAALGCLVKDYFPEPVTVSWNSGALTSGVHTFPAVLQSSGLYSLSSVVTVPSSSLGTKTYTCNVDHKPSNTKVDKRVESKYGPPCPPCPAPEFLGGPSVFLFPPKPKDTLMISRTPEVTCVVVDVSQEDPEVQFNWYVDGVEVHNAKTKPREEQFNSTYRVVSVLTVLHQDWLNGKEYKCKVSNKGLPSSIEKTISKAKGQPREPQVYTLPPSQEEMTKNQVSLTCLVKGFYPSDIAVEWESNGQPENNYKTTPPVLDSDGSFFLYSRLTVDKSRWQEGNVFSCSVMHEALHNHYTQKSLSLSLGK
light: DIQLTQSPSSLSASVGDRVTITCRASEKVDSFGNSFMHWYQQKPGKAPKLLIYLTSNLDSGVPSRFSGSGSRTDFTLTISSLQPEDFATYYCQQNNEDPYTFGQGTKLEIKRTVAAPSVFIFPPSDEQLKSGTASVVCLLNNFYPREAKVQWKVDNALQSGNSQESVTEQDSKDSTYSLSSTLTLSKADYEKHKVYACEVTHQGLSSPVTKSFNRGEC
notes: also called mAb 32
B9: Humanized anti-ILT3 mAb (52B8 VH1 M64V/VL8) IgG4 S228P/Kappa (antibody)
heavy: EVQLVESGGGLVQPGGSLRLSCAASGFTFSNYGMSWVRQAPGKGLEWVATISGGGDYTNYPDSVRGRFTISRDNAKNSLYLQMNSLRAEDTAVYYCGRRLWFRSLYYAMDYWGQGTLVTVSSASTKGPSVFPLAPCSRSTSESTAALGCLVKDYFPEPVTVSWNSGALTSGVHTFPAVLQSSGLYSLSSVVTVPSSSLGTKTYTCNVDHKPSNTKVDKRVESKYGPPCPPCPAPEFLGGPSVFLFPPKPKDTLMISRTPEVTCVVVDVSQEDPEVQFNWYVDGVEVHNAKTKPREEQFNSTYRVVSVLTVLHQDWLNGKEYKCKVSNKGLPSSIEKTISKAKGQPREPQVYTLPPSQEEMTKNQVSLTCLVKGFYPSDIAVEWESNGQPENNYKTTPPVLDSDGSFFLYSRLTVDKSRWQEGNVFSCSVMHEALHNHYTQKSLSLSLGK
light: DIQLTQSPSSLSASVGDRVTITCRASEKVDSFGNSFMHWYQQKPGKAPKLLIYLTSNLDSGVPARFSGSGSRTDFTLTISSLQPEDFATYYCQQNNEDPYTFGQGTKLEIKRTVAAPSVFIFPPSDEQLKSGTASVVCLLNNFYPREAKVQWKVDNALQSGNSQESVTEQDSKDSTYSLSSTLTLSKADYEKHKVYACEVTHQGLSSPVTKSFNRGEC
notes: also called mAb 33
B10: Mouse anti-ILT3 mAb 11D1 IgG2b/Kappa (antibody, V domains shown)
VH: QVQLQQSGAELMKPGASVKISCKATGYTFRTYWIEWVKQRPGHGLEWIGEILPGNGNTHFNENFKDKATFTADTSSNAAYMQLSSLTSEDSAVYYCVRRLGRGPFDFWGQGTTLTVSS
VL: DIQMTQSPSSLSVSLGGKVTITCKASQDINEYIGWYQRKPGKGPRLLIHYTSTLQSGIPSRFSGSGSGRDYSLSISNLEPEDIATYYCLQYANPLPTFGGGTKLEIK
notes: Mouse IgG2b/Kappa; also called p11D1; LB182.11D1.1A1
B11: Mouse anti-ILT3 mAb 1G12 IgG2a/Kappa (antibody, V domains shown)
VH: QVQMQQSGTELMKPGASMKISCKATGYTFSTYWIQWIKQRPGHGLEWIGEILPGSGTTNYNENFKGKATFSADTSSNTAYIHLSSLTSEDSAVFYCARRLGRGPFDYWGQGTTLTVSS
VL: DIQMTQSPSSLSASLGGKVTITCEASQDINKHIDWYQHQPGRGPSLLIHYASILQPGIPSRFSGSGSGRDYSFSITSLEPEDIATYYCLQYDNLLPTFGGGTKLEIK
notes: Mouse IgG2a/Kappa; also called p1G12; LB182.1G12.1B1
B12: Rat anti-ILT3 mAb 16B1 IgG2a/Kappa (antibody, V domains shown)
VH: QVQLKESGPGLVQASETLSLTCTVSGFSLTNYCVNWVRQPSGKGPEWLGRFWFDEGKAYNLTLESRLSISGDTSKNQVFLRMNSLRADDTGTYYCTRDRDTVGITGWFAYWGQGTLVTVSS
VL: ETVMTQSPTSLSASIGERVTLNCKASQSVGINVDWYQQTPGQSPKLLIYGSANRHTGVPDRFTGSGFGSDFTLTISNVEPEDLGVYYCLQYGSVPYTFGPGTKLELK
notes: Rat IgG2a/Kappa; also called p16B1; LB184.16B1.1D2
B13: Rat anti-ILT3 mAb 17H12 IgG1/Kappa (antibody, V domains shown)
VH: EVQLVESGGGLVQPGRSMKLSCAASGFTFSNFDMAWVRQAPTRGLEWVSSITYDGGSTSYRDSVKGRFTISRDNAKGTLYLQMDSLRSEDTATYYCTTVESIATISTYFDYWGQGVMVTVSS
VL: DIVLTQSPALAVSLGQRATISCRASQSVSMSRYDLIHWYQQKPGQQPKLLIFRASDLASGIPARFSGSGSGTDFTLTINPVQADDIATYYCQQTRKSPPTFGGGTRLELK
notes: Rat IgG1/Kappa; also called p17H12; LB190.17H121A1

Key:
[1] = biological target: T2, human ILT3 expressed on cells (human, UniProt Q8NHJ6 22-448); test: cELISA, CHO human ILT3 cells
T2 construct: whole, on cells; also called huILT3; LILRB4

[2] = biological target: T3, Human ILT3 (LILRB4) extracellular domain with C-terminal His Tag (human, UniProt Q8NHJ6 22-259); test: SPR (Biacore), human ILT3-His
T3 construct: the claims count residues 1-238 as the extracellular domain; also called human ILT3-His; ILT3_H
Procedure: (§1) The binding kinetics and affinities of anti-human ILT3 clones for human or rhesus ILT3-His tagged recombinant protein were measured by surface plasmon resonance using a Biacore™ T200 system (GE Healthcare, Piscataway, NJ). HBS-EP+ buffer (BR-1006-69) was used as the running buffer. Anti-human Fc antibody (Human Fc Capture Kit, BR100839, GE Healthcare) was immobilized via amine coupling chemistry in all four flow cells on a Series S CM5 sensor chip (BR100530 or 29149603, GE Healthcare) following manufacturer instructions. Flow cell 1 was used as reference for background subtraction and was not used for capture. […] Following each injection cycle, all four flow cells were regenerated using 30 second injection of 3M MgCl₂ solution at a flow rate of 10 μL/minute. Reference subtracted sensorgrams were fit to a 1:1 Langmuir Binding Model in the Biacore™ T200 Evaluation Software (Version 2.0) to determine the association (ka) and dissociation (kd) rate constants and the equilibrium dissociation constant KD (=kd/ka).

[3] = biological target: T4, Rhesus monkey ILT3 expressed on CHO-K1 cells (rhesus monkey (Macaca mulatta)); test: cELISA, CHO rhesus ILT3 cells
T4 construct: whole, on cells; also called rhILT3; CHO-rhesus ILT3

[4] = biological target: T3, Human ILT3 (LILRB4) extracellular …; test: Biacore SPR, column huILT3 KD (nM)
[5] = biological target: T1, rhesus ILT3-His tagged recombinant …; test: SPR (Biacore), rhesus ILT3-His
Procedure: as §1

[6] = biological target: T1, rhesus ILT3-His tagged recombinant …; test: Biacore SPR, column rhILT3 KD (nM)
[7] = biological target: T3, Human ILT3 (LILRB4) extracellular …; test: SPR (Biacore), human ILT3-His; remark: listed apart in the source
[8] = biological target: T2, human ILT3 expressed on cells; test: cELISA, CHO human ILT3 cells; remark: listed apart in the source
Procedure: (§2) Mouse anti-human ILT3 antibodies were tested for binding to human ILT3, and cross-reactivity to Rhesus monkey ILT3, human ILT5, human ILT7, human ILT8, and human ILT11 expressing CHO-K1 cells using a cell-based ELISA format. CHO-K1 cells were plated in 96-well tissue-culture plates in 50 μL of DMEM/F12, 10% BCS and gentamycin (CHO-K1 media). Cells were plated at either 2×10⁴ cells/well two days prior to the assay or 4×10⁴ cells/well one day prior to the assay. Media was removed from the wells prior to adding the test samples. Purified antibody was serially-diluted in CHO-K1 media and added to the CHO-K1 plates. The samples were incubated at room temperature for 30-60 minutes and plates were washed three times with PBS/05% Tween-20 using the cell wash program on the Biotek EL405x Select CW plate washer. Binding was detected using an HRP-conjugated goat anti-mouse IgG (Southern Biotech cat #1031-05) secondary antibody added at a 1:2000 dilution in CHO-K1 media and incubated at room temperature for 30-60 minutes. Assay plates were washed as above and developed with TMB and stopped with TMB stop solution (KPL cat #50-85-06). The absorbance at 450 nm—620 nm was determined. Mouse IgG1 (MIgG1) served as a control.

[9] = biological target: T1, rhesus ILT3-His tagged recombinant …; test: SPR (Biacore), rhesus ILT3-His
[10] = biological target: T4, Rhesus monkey ILT3 expressed on CHO-K1 …; test: cELISA, CHO rhesus ILT3 cells; remark: listed apart in the source
Procedure: as §2

| Binder | EC50 [1] | Kd [2] | EC50 [3] | Kd [4] | Kd [5] | Kd [6] | Kd [7] | EC50 [8] | binding result [9] | EC50 [10] | Kd [9] |
| --- | --- | --- | --- | --- | --- | --- | --- | --- | --- | --- | --- |
| B1 | 0.085 µg/mL | 1.1 nM | 0.148 µg/mL | 0.72 nM | 22 nM | 8.77 nM |  |  |  |  |  |
| B2 |  | 0.57 nM |  | 0.57 nM | 5.6 nM | 5.56 nM |  |  |  |  |  |
| B3 |  | 0.61 nM |  | 0.61 nM | 4.9 nM | 4.9 nM |  |  |  |  |  |
| B4 |  | 0.92 nM |  | 0.92 nM | 10 nM | 10.3 nM |  |  |  |  |  |
| B5 |  | 0.56 nM |  | 0.56 nM | 5.7 nM | 5.74 nM |  |  |  |  |  |
| B6 |  | 0.6 nM |  | 0.6 nM | 4.8 nM | 4.8 nM |  |  |  |  |  |
| B7 |  | 0.88 nM |  | 0.88 nM | 10 nM | 10.3 nM |  |  |  |  |  |
| B8 |  | 0.53 nM |  | 0.53 nM | 5.6 nM | 5.61 nM |  |  |  |  |  |
| B9 |  | 0.54 nM |  | 0.54 nM | 5.6 nM | 5.59 nM |  |  |  |  |  |
| B10 | 50.5 µg/mL |  |  |  |  |  | 14.1 nM | 0.0505 µg/mL |  |  |  |
| B11 | 39.2 µg/mL |  |  |  |  |  | 16.9 nM | 0.0392 µg/mL | no binding |  |  |
| B12 |  | 0.096 nM |  |  | 0.259 nM |  | 0.0957 nM | 0.0649 µg/mL |  | 0.0679 µg/mL | 0.259 nM |
| B13 | 139 µg/mL |  |  |  |  |  | 0.592 nM | 0.139 µg/mL | no binding |  |  |

From patent US20260167718A1 (Merck Sharp & Dohme, published 2026)
